{"source": "paper PMC10053325", "target": "T1, GST-SMAD4^R361H, Q13485", "T1 chain": "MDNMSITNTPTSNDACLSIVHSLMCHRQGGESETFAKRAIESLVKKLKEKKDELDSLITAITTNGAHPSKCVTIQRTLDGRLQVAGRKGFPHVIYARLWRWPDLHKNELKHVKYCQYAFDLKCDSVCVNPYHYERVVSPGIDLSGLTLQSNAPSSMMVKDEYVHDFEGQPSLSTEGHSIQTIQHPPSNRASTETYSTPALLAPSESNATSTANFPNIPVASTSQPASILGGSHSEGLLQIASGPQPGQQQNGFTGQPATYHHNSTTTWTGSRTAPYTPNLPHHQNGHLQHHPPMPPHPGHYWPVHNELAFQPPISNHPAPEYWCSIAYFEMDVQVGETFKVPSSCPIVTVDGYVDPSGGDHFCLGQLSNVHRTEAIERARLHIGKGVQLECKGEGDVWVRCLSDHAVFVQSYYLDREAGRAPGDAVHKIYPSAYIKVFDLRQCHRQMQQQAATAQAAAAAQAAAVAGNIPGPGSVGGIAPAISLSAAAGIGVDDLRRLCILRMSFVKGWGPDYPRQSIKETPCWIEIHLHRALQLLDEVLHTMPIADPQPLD", "experiment": "pull-down", "conditions": "remark: other sources report otherwise", "data": [{"binder": "Venus-flag-SMAD3, P84022 1-425 (natural protein) MSSILPFTPPIVKRLLGWKKGEQNGQEEKWCEKAVKSLVKKLKKTGQLDELEKAITTQNVNTKCITIPRSLDGRLQVSHRKGLPHVIYCRLWRWPDLHSHHELRAMELCEFAFNMKKDEVCVNPYHYQRVETPVLPPVLVPRHTEIPAEFPPLDDYSHSIPENTNFPAGIEPQSNIPETPPPGYLSEDGETSDHQMNHSMDAGSPNLSPNPMSPAHNNLDLQPVTYCEPAFWCSISYYELNQRVGETFHASQPSMTVDGFTDPSNSERFCLGLLSNVNRNAAVELTRRHIGRGVRLYYIGGEVFAECLSDSAIFVQSPNCNQRYGWHPATVCKIPPGCNLKIFNNQEFAALLAQSVNQGFEAVYQLTRMCTIRMSFVKGWGAEYRRQTVTSTPCWIELHLNGPLQWLDKVLTQMGSPSIRCSSVS", "values": [{"measurement": "EC50 of Go-6983 in enhancing the complex", "value": 8.9, "unit": "µM"}, {"measurement": "EC50 of Ro-31-8220 in enhancing the complex", "value": 2.1, "unit": "µM"}]}]}
